{
  "source": "paper PMC11933697",
  "about": "(Nature Communications, 2025)",
  "binders": {"B1": {"name": "NS1 E110A (natural protein, human respiratory syncytial virus (hRSV), UniProt P0DOE9 1-139, looked up)", "chain": "MGSNSLSMIKVRLQNLFDNDEVALLKITCYTDKLIHLTNALAKAVIHTIKLNGIVFVHVITSSDICPNNNIVVKSNFTTMPVLQNGGYIWEMMELTHCSQPNGLLDDNCAIKFSKKLSDSTMTNYMNQLSELLGFDLNP"}, "B2": {"name": "NS1 N85A (natural protein, human respiratory syncytial virus (hRSV), UniProt P0DOE9 1-139, looked up)", "chain": "B1 chain with N85A, A110E"}, "B3": {"name": "NS1 Y125A (natural protein, human respiratory syncytial virus (hRSV), UniProt P0DOE9 1-139, looked up)", "chain": "B1 chain with A110E, Y125A"}, "B4": {"name": "NS1 ΔDLNP (domain or fragment, human respiratory syncytial virus (hRSV), UniProt P0DOE9 1-135, looked up)", "chain": "MGSNSLSMIKVRLQNLFDNDEVALLKITCYTDKLIHLTNALAKAVIHTIKLNGIVFVHVITSSDICPNNNIVVKSNFTTMPVLQNGGYIWEMMELTHCSQPNGLLDDNCEIKFSKKLSDSTMTNYMNQLSELLGF"}, "B5": {"name": "hATF3 bZIP (88-149) (domain or fragment, human, UniProt P18847 88-149, looked up)", "chain": "RKKRRRERNKIAAAKCRNKKKEKTECLQKESEKLESVNAELKAQIEELKNEKQHLIYMLNLH"}, "B6": {"name": "hRSV NS1 (1-139) (natural protein, human respiratory syncytial virus (hRSV), UniProt P0DOE9 1-139, looked up)", "chain": "B1 chain with A110E"}},
  "assay_in_all_cases": "ITC",
  "key": {"[1]": {"biological_target": "T1, hMED25 ACID (389-543) (human, UniProt Q71SY5 389-543)", "T1 sequence (looked up)": "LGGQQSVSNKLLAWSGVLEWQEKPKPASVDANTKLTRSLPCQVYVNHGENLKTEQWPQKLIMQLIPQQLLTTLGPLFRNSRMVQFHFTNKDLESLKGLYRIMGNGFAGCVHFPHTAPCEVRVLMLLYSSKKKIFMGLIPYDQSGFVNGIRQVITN"}, "[2]": {"biological_target": "T2, NS1/MED25 ACID complex (human respiratory syncytial virus …, UniProt P0DOE9 1-139; Q71SY5 389-543)", "T2 sequence (looked up) 1": "B1 chain with A110E", "T2 sequence (looked up) 2": "T1 sequence (looked up)"}, "[3]": {"biological_target": "T1, hMED25 ACID (389-543)", "remark": "listed apart in the source"}, "[4]": {"biological_target": "T3, MED25 ACID I537A/R538A (human, UniProt Q71SY5 389-543, I537A | R538A)", "T3 sequence (looked up)": "T1 sequence (looked up) with I149A, R150A"}, "[5]": {"biological_target": "T4, MED25 ACID I541A/T542A (human, UniProt Q71SY5 389-543, I541A | T542A)", "T4 sequence (looked up)": "T1 sequence (looked up) with I153A, T154A"}},
  "note": "Residue numbers refer to the chain shown, from its start. In names and notes the source's numbering stands. Like-named read-outs stand apart in the source and are kept apart here.",
  "data": [
    {"binder": "B1", "values": [
      {"measurement": "Kd", "setting": "[1]", "value": "1740 ± 370", "unit": "nM"}
    ]},
    {"binder": "B2", "values": [
      {"measurement": "Kd", "setting": "[1]", "value": "41 ± 8", "unit": "nM"}
    ]},
    {"binder": "B3", "values": [
      {"measurement": "Kd", "setting": "[1]", "value": "182 ± 20", "unit": "nM"}
    ]},
    {"binder": "B4", "values": [
      {"measurement": "binding result", "setting": "[1]", "value": "binds"}
    ]},
    {"binder": "B5", "values": [
      {"measurement": "Kd", "setting": "[2]", "value": "3080 ± 1320", "unit": "nM"},
      {"measurement": "Kd", "setting": "[3]", "value": "1290 ± 321", "unit": "nM"}
    ]},
    {"binder": "B6", "values": [
      {"measurement": "Kd", "setting": "[4]", "value": "82 ± 10", "unit": "nM"},
      {"measurement": "Kd", "setting": "[5]", "value": "116 ± 30", "unit": "nM"},
      {"measurement": "Kd", "setting": "[1]", "value": "41 ± 5", "unit": "nM"}
    ]}
  ]
}
